Numbering of substitutions follows the chain as printed. Names may count otherwise.
T1: Human CD3eg linker (human)
T1 construct: single-chain construct; also called recombinant human CD3
T1 chain: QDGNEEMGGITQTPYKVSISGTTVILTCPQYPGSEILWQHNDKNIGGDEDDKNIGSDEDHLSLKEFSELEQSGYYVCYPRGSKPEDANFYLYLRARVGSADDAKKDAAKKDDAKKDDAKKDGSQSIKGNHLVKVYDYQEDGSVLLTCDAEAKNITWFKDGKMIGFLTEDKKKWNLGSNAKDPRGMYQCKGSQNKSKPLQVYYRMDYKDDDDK

B1: dBBDu183H H96Q/dBBDu072L (antibody, name in Kabat numbering, V domains shown)
VH: QVQLVESGGGLVQPGRSLRLSCAASGFTFSNAWMHWVRQAPGKGLEWVAQIKDKGNAYAAYYAPSVKGRFTISRDDSKNSIYLQMNSLKTEDTAVYYCHYVQYASASTVLPAFGVDAWGQGTTVTVSS
VL: DIVMTQSPLSLPVTPGEPASISCQASQELVHMNRNTYLHWYQQKPGQAPRLLIYKVSNRFPGVPDRFSGSGSGTDFTLKISRVEAEDVGVYYCAQGTSVPFTFGQGTKLEIK
B2: dBBDu183H P61E/dBBDu072L (antibody, name in Kabat numbering, V domains shown)
VH: B1 VH with P64E, Q102H
VL: B1 VL
B3: dBBDu183H L100dE/dBBDu072L (antibody, name in Kabat numbering, V domains shown)
VH: B1 VH with Q102H, L110E
VL: B1 VL
B4: dBBDu183H L100dQ/dBBDu072L (antibody, name in Kabat numbering, V domains shown)
VH: B1 VH with Q102H, L110Q
VL: B1 VL
B5: dBBDu183H K64W/dBBDu072L (antibody, name in Kabat numbering, V domains shown)
VH: B1 VH with K67W, Q102H
VL: B1 VL
B6: dBBDu183H K64H/dBBDu072L (antibody, name in Kabat numbering, V domains shown)
VH: B1 VH with K67H, Q102H
VL: B1 VL
B7: dBBDu183H L100dD/dBBDu072L (antibody, name in Kabat numbering, V domains shown)
VH: B1 VH with Q102H, L110D
VL: B1 VL
B8: dBBDu183H P61H/dBBDu072L (antibody, name in Kabat numbering, V domains shown)
VH: B1 VH with P64H, Q102H
VL: B1 VL
B9: dBBDu183H K64V/dBBDu072L (antibody, name in Kabat numbering, V domains shown)
VH: B1 VH with K67V, Q102H
VL: B1 VL
B10: dBBDu183H L100dW/dBBDu072L (antibody, name in Kabat numbering, V domains shown)
VH: B1 VH with Q102H, L110W
VL: B1 VL
B11: dBBDu183H K64F/dBBDu072L (antibody, name in Kabat numbering, V domains shown)
VH: B1 VH with K67F, Q102H
VL: B1 VL
B12: dBBDu183H K64N/dBBDu072L (antibody, name in Kabat numbering, V domains shown)
VH: B1 VH with K67N, Q102H
VL: B1 VL
B13: dBBDu183H L100dY/dBBDu072L (antibody, name in Kabat numbering, V domains shown)
VH: B1 VH with Q102H, L110Y
VL: B1 VL
B14: dBBDu183H K64E/dBBDu072L (antibody, name in Kabat numbering, V domains shown)
VH: B1 VH with K67E, Q102H
VL: B1 VL
B15: dBBDu183H H96S/dBBDu072L (antibody, name in Kabat numbering, V domains shown)
VH: B1 VH with Q102S
VL: B1 VL
B16: dBBDu183H P61T/dBBDu072L (antibody, name in Kabat numbering, V domains shown)
VH: B1 VH with P64T, Q102H
VL: B1 VL
B17: dBBDu183H K64D/dBBDu072L (antibody, name in Kabat numbering, V domains shown)
VH: B1 VH with K67D, Q102H
VL: B1 VL
B18: dBBDu183H K64G/dBBDu072L (antibody, name in Kabat numbering, V domains shown)
VH: B1 VH with K67G, Q102H
VL: B1 VL
B19: dBBDu183H P61N/dBBDu072L (antibody, name in Kabat numbering, V domains shown)
VH: B1 VH with P64N, Q102H
VL: B1 VL
B20: dBBDu183H L100dH/dBBDu072L (antibody, name in Kabat numbering, V domains shown)
VH: B1 VH with Q102H, L110H
VL: B1 VL
B21: dBBDu183H P61S/dBBDu072L (antibody, name in Kabat numbering, V domains shown)
VH: B1 VH with P64S, Q102H
VL: B1 VL
B22: dBBDu183H H96V/dBBDu072L (antibody, name in Kabat numbering, V domains shown)
VH: B1 VH with Q102V
VL: B1 VL
B23: dBBDu183H P61D/dBBDu072L (antibody, name in Kabat numbering, V domains shown)
VH: B1 VH with P64D, Q102H
VL: B1 VL
B24: dBBDu183H L100dF/dBBDu072L (antibody, name in Kabat numbering, V domains shown)
VH: B1 VH with Q102H, L110F
VL: B1 VL
B25: dBBDu183H P61R/dBBDu072L (antibody, name in Kabat numbering, V domains shown)
VH: B1 VH with P64R, Q102H
VL: B1 VL
B26: dBBDu183H K64T/dBBDu072L (antibody, name in Kabat numbering, V domains shown)
VH: B1 VH with K67T, Q102H
VL: B1 VL
B27: dBBDu183H K64R/dBBDu072L (antibody, name in Kabat numbering, V domains shown)
VH: B1 VH with K67R, Q102H
VL: B1 VL
B28: dBBDu183H P61G/dBBDu072L (antibody, name in Kabat numbering, V domains shown)
VH: B1 VH with P64G, Q102H
VL: B1 VL
B29: dBBDu183H P61Q/dBBDu072L (antibody, name in Kabat numbering, V domains shown)
VH: B1 VH with P64Q, Q102H
VL: B1 VL
B30: dBBDu183H L100dK/dBBDu072L (antibody, name in Kabat numbering, V domains shown)
VH: B1 VH with Q102H, L110K
VL: B1 VL
B31: dBBDu183H K64S/dBBDu072L (antibody, name in Kabat numbering, V domains shown)
VH: B1 VH with K67S, Q102H
VL: B1 VL
B32: dBBDu183H L100dV/dBBDu072L (antibody, name in Kabat numbering, V domains shown)
VH: B1 VH with Q102H, L110V
VL: B1 VL
B33: dBBDu183H K64Q/dBBDu072L (antibody, name in Kabat numbering, V domains shown)
VH: B1 VH with K67Q, Q102H
VL: B1 VL
B34: dBBDu183H H96W/dBBDu072L (antibody, name in Kabat numbering, V domains shown)
VH: B1 VH with Q102W
VL: B1 VL
B35: dBBDu183H H96Y/dBBDu072L (antibody, name in Kabat numbering, V domains shown)
VH: B1 VH with Q102Y
VL: B1 VL
B36: dBBDu183H L100dR/dBBDu072L (antibody, name in Kabat numbering, V domains shown)
VH: B1 VH with Q102H, L110R
VL: B1 VL
B37: dBBDu183H H96R/dBBDu072L (antibody, name in Kabat numbering, V domains shown)
VH: B1 VH with Q102R
VL: B1 VL
B38: dBBDu183H L100dS/dBBDu072L (antibody, name in Kabat numbering, V domains shown)
VH: B1 VH with Q102H, L110S
VL: B1 VL
B39: dBBDu183H L100dT/dBBDu072L (antibody, name in Kabat numbering, V domains shown)
VH: B1 VH with Q102H, L110T
VL: B1 VL
B40: dBBDu183H L100dN/dBBDu072L (antibody, name in Kabat numbering, V domains shown)
VH: B1 VH with Q102H, L110N
VL: B1 VL
B41: dBBDu183H K64Y/dBBDu072L (antibody, name in Kabat numbering, V domains shown)
VH: B1 VH with K67Y, Q102H
VL: B1 VL
B42: dBBDu183H P61F/dBBDu072L (antibody, name in Kabat numbering, V domains shown)
VH: B1 VH with P64F, Q102H
VL: B1 VL
B43: dBBDu183H L100dG/dBBDu072L (antibody, name in Kabat numbering, V domains shown)
VH: B1 VH with Q102H, L110G
VL: B1 VL
B44: dBBDu183H P61K/dBBDu072L (antibody, name in Kabat numbering, V domains shown)
VH: B1 VH with P64K, Q102H
VL: B1 VL
B45: dBBDu183H H96T/dBBDu072L (antibody, name in Kabat numbering, V domains shown)
VH: B1 VH with Q102T
VL: B1 VL

Molecular target: T1, Human CD3eg linker
Test: SPR, vs unmutated H183/L072

Row | fold change of affinity | Binder
1 | 0.3 fold | B1
2 | 1.8 fold | B2
3 | 0.7 fold | B3
4 | 1.1 fold | B4
5 | 1 fold | B5
6 | 1 fold | B6
7 | 1 fold | B7
8 | 1.8 fold | B8
9 | 1.1 fold | B9
10 | 1.7 fold | B10
11 | 1.3 fold | B11
12 | 1 fold | B12
13 | 1.4 fold | B13
14 | 1 fold | B14
15 | 0.2 fold | B15
16 | 1 fold | B16
17 | 1 fold | B17
18 | 1 fold | B18
19 | 1.5 fold | B19
20 | 1.3 fold | B20
21 | 1.3 fold | B21
22 | 0 fold | B22
23 | 1.9 fold | B23

Row | fold change of affinity | Binder
24 | 1.3 fold | B24
25 | 1.6 fold | B25
26 | 1.1 fold | B26
27 | 0.9 fold | B27
28 | 1.5 fold | B28
29 | 1.8 fold | B29
30 | 1.8 fold | B30
31 | 1 fold | B31
32 | 1 fold | B32
33 | 1 fold | B33
34 | 0 fold | B34
35 | 0 fold | B35
36 | 1.8 fold | B36
37 | 0.3 fold | B37
38 | 1.2 fold | B38
39 | 1.3 fold | B39
40 | 1.2 fold | B40
41 | 1 fold | B41
42 | 1.8 fold | B42
43 | 2 fold | B43
44 | 1.7 fold | B44
45 | 0 fold | B45

Reference: patent publication US20210388087A1 (Chugai, published 2021)
